According to patent US20120141505A1 (published 2012):

Key:
[1] = biological target: T1, human CD19 expressed on transfected DT40 chicken B-lymphoma cells (DT40hCD19+) (human, UniProt P15391 20-556); assay: flow cytometry, biotin-labeled CD19-L plus Avidin-FITC
T1 construct: Human CD19 cDNA under a chicken actin promoter (pApuro) in DT40 cells; also called human CD19 co-receptor
T1 sequence: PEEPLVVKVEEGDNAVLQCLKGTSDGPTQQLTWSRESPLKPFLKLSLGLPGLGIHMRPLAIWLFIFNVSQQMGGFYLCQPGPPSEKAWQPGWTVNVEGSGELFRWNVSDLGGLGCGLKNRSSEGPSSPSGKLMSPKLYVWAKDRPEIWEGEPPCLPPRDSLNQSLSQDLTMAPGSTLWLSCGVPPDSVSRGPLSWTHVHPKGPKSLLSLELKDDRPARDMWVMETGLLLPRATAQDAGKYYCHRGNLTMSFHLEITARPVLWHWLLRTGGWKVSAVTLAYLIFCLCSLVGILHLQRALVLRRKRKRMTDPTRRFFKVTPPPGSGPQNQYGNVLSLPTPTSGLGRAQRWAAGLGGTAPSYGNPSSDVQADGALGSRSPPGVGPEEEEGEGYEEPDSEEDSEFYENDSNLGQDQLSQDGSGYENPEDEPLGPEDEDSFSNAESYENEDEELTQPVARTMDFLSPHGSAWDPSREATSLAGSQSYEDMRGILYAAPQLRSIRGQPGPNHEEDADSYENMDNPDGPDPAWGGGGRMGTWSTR
Source text: (§1) Binding of biotin-labeled soluble CD19-L protein to the surface of CD19 co-receptor positive cells was examined using immunofluorescence staining combined with flow cytometry and deconvolution microscopy.

[2] = biological target: T2, CD19 co-receptor on CD19+ human B-lineage ALL cells (primary leukemic cells; NALM-6 cell line) (human, UniProt P15391 20-556); assay: deconvolution microscopy, biotin-labeled CD19-L plus Avidin-FITC
T2 construct: Endogenous CD19 on leukemia cells
T2 sequence: T1 sequence
Procedure: Deconvolution microscopy was performed using the Deltavision deconvolution system from Applied Precision which consists of a Nikon TE200 inverted microscope outfitted for epifluorescence and fitted with an Applied Precision nanomover stage for precise control of the stage. Image collection was through a Photometrics CH350/L liquid cooled CCD camera. The system was controlled by SoftWoRx imaging software run on a Silicon Graphics O2 workstation.
as §1

B1: biotin-labeled soluble recombinant human CD19-L protein (ligand)
chain: MYMSMTEPSQDYVPASQSYPGPSLESEDFNIPPITPPSLQDHSLVHLNEVESGYHSLCHPMNHNGLLPFHPQNMDLPEITVSNMLGQDGTLLSNSISVMPDIRNPEGTQYSSHPQMAAMRPRGQPAQIRQQPGMMPHGQLTTINQSQLSAQLGLNMGGSNVPHNSPSPPGSKSATPSPSSSVHEDEGDDTSKINGGEKRPASDMGKKPKTPKKKKKKDPNEPQKPVSAYALFFRDTQAAIKGQNPNATFGEVSKIVASMWDGLGEEQKQVYKKKTEAAKKEYLKQLAAYRASLVSKSYSEPVDVKTSQPPQLINSKPSVFHGPSQAHSALYLSSHYHQQPGMNPHLTAMHPSLPRNIAPKPNNQMQVTVSIANMAVSPPPPLQISPPLHQHLNMQQHQPLTMQQPLGNQLPMQVQSALHSPTMQQGFTLQPDYQTIINPTSTAAQVVTQAMEYVRSGCRNPPPQPVDWNNDYCSSGGMQRDKALYLT
modifications: biotin-labeled (sites not given) ; Biotin-labelled; sites and chemistry not stated.
notes: Same recombinant protein as m1, labelled with biotin and detected with Avidin-FITC; also called biotin-labeled CD19-L; biotin-labeled soluble CD19-L protein; not shown: N-terminal pFastBacHT leader (6xHis tag, spacer region, rTEV cleavage site)
[1]
  binding result: binds
[2]
  binding result: binds
